# In US20150344570A1 (published 2015):
# T1: FcγRIIb extracellular domain with C-terminal His tag (human, UniProt P31994 43-217)
# T1 construct: extracellular domain; also called FcgRIIb; 2b
# T1 sequence (looked up): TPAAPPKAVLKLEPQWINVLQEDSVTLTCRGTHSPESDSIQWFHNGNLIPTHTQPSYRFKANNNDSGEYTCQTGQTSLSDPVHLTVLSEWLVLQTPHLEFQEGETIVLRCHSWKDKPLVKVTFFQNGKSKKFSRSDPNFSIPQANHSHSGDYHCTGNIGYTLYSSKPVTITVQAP
# T2: FcγRIIa R (FcγRIIa, allotype with Arg at position 131), extracellular domain with C-terminal His tag (human, UniProt P12318 34-217)
# T2 construct: extracellular domain; also called FcγRIIa R type; 2aR
# T2 sequence (looked up): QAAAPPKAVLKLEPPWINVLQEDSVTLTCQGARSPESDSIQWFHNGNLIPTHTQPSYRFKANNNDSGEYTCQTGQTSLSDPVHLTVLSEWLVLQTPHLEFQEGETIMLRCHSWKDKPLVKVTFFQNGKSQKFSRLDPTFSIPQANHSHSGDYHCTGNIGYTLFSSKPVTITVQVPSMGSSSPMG
# B1: GpH7-A5/GpH7-B3 variant S337_16H/GpL16-k0 (antibody, human IgG1, kappa)
# heavy 1: not shown
# heavy 2: not shown
# light: DIVMTQSPLSLPVTPGEPASISCQASESLVHSNRNTYLHWYLQKPGQSPQLLIYKVSNRFSGVPDRFSGSGSGTDFTLKISRVEAEDVGVYYCSQNTHVPPTFGQGTKVEIERTVAAPSVFIFPPSDEQLKSGTASVVCLLNNFYPREAKVQWKVDNALQSGNSQESVTEQDSKDSTYSLSSTLTLSKADYEKHKVYACEVTHQGLSSPVTKSFNRGEC
# notes: also called He Ab S337_16H
# B2: GpH7-B3 variant S337_02A/GpL16-k0 (antibody, human IgG1, kappa)
# heavy: not shown
# light: B1 light
# notes: also called Ho Ab
# B3: GpH7-B3 variant S239_08L/GpL16-k0 (antibody, human IgG1, kappa)
# heavy: not shown
# light: B1 light
# notes: also called Ho Ab
# B4: GpH7-B3 variant P331_09D/GpL16-k0 (antibody, human IgG1, kappa)
# heavy: not shown
# light: B1 light
# notes: also called Ho Ab
# B5: GpH7-B3 variant S267_03V/GpL16-k0 (antibody, human IgG1, kappa)
# heavy: not shown
# light: B1 light
# notes: also called Ho Ab
# B6: GpH7-B3 variant P331_16H/GpL16-k0 (antibody, human IgG1, kappa)
# heavy: not shown
# light: B1 light
# notes: also called Ho Ab
# B7: GpH7-B3 variant P331_07I/GpL16-k0 (antibody, human IgG1, kappa)
# heavy: not shown
# light: B1 light
# notes: also called Ho Ab
# B8: GpH7-B3 variant S267_19Q/GpL16-k0 (antibody, human IgG1, kappa)
# heavy: not shown
# light: B1 light
# notes: also called Ho Ab
# B9: GpH7-B3 variant S298_08L/GpL16-k0 (antibody, human IgG1, kappa)
# heavy: not shown
# light: B1 light
# notes: also called Ho Ab
# B10: GpH7-B3 variant Q295_06M/GpL16-k0 (antibody, human IgG1, kappa)
# heavy: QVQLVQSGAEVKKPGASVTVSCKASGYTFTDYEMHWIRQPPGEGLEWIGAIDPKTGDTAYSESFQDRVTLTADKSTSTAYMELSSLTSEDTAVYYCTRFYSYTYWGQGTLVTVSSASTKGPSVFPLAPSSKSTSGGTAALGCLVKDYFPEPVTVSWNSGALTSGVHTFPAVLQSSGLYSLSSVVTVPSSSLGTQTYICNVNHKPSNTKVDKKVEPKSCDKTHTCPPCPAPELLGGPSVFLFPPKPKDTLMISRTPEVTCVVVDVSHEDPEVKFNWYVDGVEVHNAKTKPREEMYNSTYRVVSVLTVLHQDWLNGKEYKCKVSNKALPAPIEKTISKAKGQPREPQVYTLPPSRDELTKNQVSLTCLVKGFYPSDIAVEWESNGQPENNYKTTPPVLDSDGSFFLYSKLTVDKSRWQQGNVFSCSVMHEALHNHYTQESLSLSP
# light: B1 light
# notes: also called Ho Ab
# B11: GpH7-B3 variant P331_20W/GpL16-k0 (antibody, human IgG1, kappa)
# heavy: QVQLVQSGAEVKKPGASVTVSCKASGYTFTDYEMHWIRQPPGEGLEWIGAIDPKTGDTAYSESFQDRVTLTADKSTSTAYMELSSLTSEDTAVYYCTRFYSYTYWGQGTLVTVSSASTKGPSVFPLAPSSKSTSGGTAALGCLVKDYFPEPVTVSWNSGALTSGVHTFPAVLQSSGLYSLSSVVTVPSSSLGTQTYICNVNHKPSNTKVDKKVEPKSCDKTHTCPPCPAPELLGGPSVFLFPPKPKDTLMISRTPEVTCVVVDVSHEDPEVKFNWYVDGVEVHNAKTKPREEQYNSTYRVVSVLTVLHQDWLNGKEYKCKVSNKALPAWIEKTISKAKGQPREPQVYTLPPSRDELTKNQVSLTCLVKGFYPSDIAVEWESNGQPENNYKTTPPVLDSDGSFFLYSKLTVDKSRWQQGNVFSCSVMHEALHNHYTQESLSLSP
# light: B1 light
# notes: also called Ho Ab
# B12: GpH7-B3 variant Q295_10E/GpL16-k0 (antibody, human IgG1, kappa)
# heavy: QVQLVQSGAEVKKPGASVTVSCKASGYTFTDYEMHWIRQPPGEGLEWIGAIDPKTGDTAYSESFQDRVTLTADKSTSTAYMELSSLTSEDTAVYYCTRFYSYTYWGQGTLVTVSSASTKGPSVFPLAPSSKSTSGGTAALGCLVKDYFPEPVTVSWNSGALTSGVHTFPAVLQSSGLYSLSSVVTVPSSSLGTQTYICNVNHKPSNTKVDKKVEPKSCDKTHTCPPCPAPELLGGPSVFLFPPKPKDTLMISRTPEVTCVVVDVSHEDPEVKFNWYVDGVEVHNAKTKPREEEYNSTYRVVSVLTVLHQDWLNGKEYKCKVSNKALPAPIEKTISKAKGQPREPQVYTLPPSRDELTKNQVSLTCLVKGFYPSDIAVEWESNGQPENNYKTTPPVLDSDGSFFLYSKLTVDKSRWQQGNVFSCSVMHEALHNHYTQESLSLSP
# light: B1 light
# notes: also called Ho Ab
# B13: GpH7-B3 variant P331_06M/GpL16-k0 (antibody, human IgG1, kappa)
# heavy: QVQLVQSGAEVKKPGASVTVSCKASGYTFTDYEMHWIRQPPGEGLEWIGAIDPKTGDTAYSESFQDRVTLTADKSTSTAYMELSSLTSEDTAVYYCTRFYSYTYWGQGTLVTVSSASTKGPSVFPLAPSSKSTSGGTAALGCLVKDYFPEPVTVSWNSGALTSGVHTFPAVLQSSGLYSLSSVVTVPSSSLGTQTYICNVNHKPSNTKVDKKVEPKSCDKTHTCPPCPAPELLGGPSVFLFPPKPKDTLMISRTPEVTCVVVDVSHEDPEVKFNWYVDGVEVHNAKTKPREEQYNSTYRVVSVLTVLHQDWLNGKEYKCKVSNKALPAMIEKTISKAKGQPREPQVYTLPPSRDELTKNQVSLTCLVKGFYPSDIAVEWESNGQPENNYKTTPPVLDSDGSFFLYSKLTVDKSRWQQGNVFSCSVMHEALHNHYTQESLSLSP
# light: B1 light
# notes: also called Ho Ab
# B14: GpH7-B3 variant S239_06M/GpL16-k0 (antibody, human IgG1, kappa)
# heavy: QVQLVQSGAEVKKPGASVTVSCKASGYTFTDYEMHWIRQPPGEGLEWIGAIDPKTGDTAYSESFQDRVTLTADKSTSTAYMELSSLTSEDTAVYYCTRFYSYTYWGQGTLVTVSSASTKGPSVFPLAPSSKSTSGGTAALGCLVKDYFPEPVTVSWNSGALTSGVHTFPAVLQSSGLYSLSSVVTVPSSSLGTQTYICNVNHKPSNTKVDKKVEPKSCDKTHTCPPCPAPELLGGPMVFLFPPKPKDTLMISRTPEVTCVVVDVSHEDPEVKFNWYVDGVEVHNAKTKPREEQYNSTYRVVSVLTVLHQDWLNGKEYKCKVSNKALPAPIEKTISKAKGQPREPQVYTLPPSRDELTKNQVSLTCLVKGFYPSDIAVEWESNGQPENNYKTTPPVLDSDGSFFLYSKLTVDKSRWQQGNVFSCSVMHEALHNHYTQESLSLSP
# light: B1 light
# notes: also called Ho Ab
# B15: GpH7-B3 variant P331_15Y/GpL16-k0 (antibody, human IgG1, kappa)
# heavy: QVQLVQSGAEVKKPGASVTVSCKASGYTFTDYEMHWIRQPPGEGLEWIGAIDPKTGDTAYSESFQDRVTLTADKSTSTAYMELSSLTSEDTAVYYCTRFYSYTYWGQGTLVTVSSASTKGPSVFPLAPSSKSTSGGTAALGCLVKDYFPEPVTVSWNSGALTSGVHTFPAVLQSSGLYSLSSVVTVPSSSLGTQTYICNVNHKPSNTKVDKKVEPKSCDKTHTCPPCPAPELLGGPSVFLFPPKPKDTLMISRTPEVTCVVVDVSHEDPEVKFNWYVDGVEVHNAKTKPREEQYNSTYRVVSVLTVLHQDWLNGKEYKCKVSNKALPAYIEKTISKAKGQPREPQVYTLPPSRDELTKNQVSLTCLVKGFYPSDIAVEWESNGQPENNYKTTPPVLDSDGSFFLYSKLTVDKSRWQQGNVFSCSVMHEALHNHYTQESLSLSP
# light: B1 light
# notes: also called Ho Ab
# B16: GpH7-B3 variant S267_06M/GpL16-k0 (antibody, human IgG1, kappa)
# heavy: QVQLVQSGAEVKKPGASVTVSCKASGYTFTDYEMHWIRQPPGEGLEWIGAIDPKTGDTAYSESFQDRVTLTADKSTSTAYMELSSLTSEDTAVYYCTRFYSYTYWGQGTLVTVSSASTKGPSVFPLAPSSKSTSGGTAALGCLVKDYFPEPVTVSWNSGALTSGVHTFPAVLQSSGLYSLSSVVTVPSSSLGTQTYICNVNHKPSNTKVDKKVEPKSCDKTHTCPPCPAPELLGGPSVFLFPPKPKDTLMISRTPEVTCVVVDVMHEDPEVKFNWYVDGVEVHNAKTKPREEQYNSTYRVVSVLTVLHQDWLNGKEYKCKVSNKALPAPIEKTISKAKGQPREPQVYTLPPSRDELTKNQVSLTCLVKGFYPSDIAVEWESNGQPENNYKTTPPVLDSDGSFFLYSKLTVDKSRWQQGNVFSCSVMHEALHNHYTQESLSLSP
# light: B1 light
# notes: also called Ho Ab
# B17: GpH7-B3 variant P331_18N/GpL16-k0 (antibody, human IgG1, kappa)
# heavy: not shown
# light: B1 light
# notes: also called Ho Ab
# B18: GpH7-B3 variant P331_13S/GpL16-k0 (antibody, human IgG1, kappa)
# heavy: not shown
# light: B1 light
# notes: also called Ho Ab
# B19: GpH7-B3 variant S239_10E/GpL16-k0 (antibody, human IgG1, kappa)
# heavy: not shown
# light: B1 light
# notes: also called Ho Ab
# B20: GpH7-B3 variant S239_18N/GpL16-k0 (antibody, human IgG1, kappa)
# heavy: not shown
# light: B1 light
# notes: also called Ho Ab
# B21: GpH7-B3 variant P331_14T/GpL16-k0 (antibody, human IgG1, kappa)
# heavy: not shown
# light: B1 light
# notes: also called Ho Ab
# B22: GpH7-B3 variant P331_10E/GpL16-k0 (antibody, human IgG1, kappa)
# heavy: not shown
# light: B1 light
# notes: also called Ho Ab
# B23: GpH7-B3 variant S267_09D/GpL16-k0 (antibody, human IgG1, kappa)
# heavy: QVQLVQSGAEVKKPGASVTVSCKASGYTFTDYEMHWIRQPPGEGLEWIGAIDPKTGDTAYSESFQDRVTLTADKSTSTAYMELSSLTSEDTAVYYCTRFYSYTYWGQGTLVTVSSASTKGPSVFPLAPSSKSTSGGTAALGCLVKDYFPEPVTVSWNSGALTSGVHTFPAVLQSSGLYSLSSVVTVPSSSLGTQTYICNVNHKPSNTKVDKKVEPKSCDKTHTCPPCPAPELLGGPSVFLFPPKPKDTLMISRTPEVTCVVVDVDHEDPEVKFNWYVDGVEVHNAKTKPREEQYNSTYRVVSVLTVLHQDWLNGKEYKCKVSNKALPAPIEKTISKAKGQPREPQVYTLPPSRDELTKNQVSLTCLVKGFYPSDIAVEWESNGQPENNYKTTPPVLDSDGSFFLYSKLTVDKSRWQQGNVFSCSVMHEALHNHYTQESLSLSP
# light: B1 light
# notes: also called Ho Ab
# B24: GpH7-B3 variant P331_08L/GpL16-k0 (antibody, human IgG1, kappa)
# heavy: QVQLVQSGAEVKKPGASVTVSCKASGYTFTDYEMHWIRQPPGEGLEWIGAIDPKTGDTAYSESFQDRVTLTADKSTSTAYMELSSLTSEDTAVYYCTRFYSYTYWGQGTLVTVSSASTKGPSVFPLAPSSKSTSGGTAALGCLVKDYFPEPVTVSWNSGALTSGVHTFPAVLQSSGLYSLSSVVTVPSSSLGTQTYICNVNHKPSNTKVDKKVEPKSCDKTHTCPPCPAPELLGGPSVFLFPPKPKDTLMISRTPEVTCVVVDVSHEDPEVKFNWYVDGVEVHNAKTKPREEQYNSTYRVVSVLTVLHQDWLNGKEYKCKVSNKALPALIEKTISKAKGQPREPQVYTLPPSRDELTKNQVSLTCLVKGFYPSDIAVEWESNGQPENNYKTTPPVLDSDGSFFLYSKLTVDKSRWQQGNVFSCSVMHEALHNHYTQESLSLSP
# light: B1 light
# notes: also called Ho Ab
# B25: GpH7-B3 variant S239_14T/GpL16-k0 (antibody, human IgG1, kappa)
# heavy: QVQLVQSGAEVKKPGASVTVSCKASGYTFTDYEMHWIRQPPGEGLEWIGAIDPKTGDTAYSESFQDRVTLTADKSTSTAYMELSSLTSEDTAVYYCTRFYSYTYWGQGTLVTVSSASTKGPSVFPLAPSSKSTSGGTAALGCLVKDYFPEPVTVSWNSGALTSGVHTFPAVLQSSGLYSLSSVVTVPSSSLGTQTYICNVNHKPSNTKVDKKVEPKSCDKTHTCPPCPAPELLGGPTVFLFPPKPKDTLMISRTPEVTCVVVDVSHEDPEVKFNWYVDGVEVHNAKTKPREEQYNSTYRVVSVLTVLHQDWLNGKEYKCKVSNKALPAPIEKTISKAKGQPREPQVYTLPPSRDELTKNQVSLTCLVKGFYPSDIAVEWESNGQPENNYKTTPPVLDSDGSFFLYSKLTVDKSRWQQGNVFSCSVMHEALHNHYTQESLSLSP
# light: B1 light
# notes: also called Ho Ab
# B26: GpH7-B3 variant S239_07I/GpL16-k0 (antibody, human IgG1, kappa)
# heavy: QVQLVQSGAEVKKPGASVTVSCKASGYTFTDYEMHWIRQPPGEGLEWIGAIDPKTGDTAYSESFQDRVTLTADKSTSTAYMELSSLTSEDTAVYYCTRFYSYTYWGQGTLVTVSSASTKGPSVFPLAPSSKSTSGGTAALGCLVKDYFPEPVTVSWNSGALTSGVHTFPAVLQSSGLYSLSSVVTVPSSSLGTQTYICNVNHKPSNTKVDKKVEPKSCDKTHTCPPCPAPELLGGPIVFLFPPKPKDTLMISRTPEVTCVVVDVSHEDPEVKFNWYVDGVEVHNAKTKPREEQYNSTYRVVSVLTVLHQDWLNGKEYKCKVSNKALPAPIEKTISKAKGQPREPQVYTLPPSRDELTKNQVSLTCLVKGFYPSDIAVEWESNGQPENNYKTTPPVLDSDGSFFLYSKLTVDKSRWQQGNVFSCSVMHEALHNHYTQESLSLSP
# light: B1 light
# notes: also called Ho Ab
# B27: GpH7-B3 variant S298_06M/GpL16-k0 (antibody, human IgG1, kappa)
# heavy: not shown
# light: B1 light
# notes: also called Ho Ab
# Target: T1, FcγRIIb extracellular domain with …
# Test: SPR (Biacore), relative binding
row,He/Con_2b,Binder
1,105 % of HeCon Ab GpH7-A5/GpH7-B3/GpL16-k0,B1

# Target: T2, FcγRIIa R (FcγRIIa, allotype with Arg …)
# Test: SPR (Biacore), antibody captured on antigen peptide chip, FcγR as analyte; relative binding
# Method: Analysis of interaction between objective antibody and the FcγR was carried out using Biacore T100 (GE Healthcare). HBS-EP+ (GE Healthcare) was used as the running buffer, and the measurement temperature was set to 25° C. Chips produced by immobilizing the antigen peptide by the amine coupling method to a Series S Sencor Chip CM5 (GE Healthcare), or alternatively, chips produced by allowing preliminarily biotinylated antigen peptides to interact with and immobilize onto a Series S Sensor Chip SA (certified) (GE Healthcare) were used. Antibodies of interest were captured onto an antigen peptide-immobilized chip, and allowed to interact to each FcγR diluted with running buffer. To regenerate and repeatedly use the chip, the antibodies captured on the chip were washed off by reacting 10 mM glycine-HCl, pH 1.5.
row,Ho/Con_2aR,Binder
1,102 % of GpH7-B3/GpL16-k0 (=100),B2
2,106 % of GpH7-B3/GpL16-k0 (=100),B3
3,88.8 % of GpH7-B3/GpL16-k0 (=100),B4
4,115 % of GpH7-B3/GpL16-k0 (=100),B5
5,100 % of GpH7-B3/GpL16-k0 (=100),B6
6,67 % of GpH7-B3/GpL16-k0 (=100),B7
7,110 % of GpH7-B3/GpL16-k0 (=100),B8
8,101 % of GpH7-B3/GpL16-k0 (=100),B9
9,93.9 % of GpH7-B3/GpL16-k0 (=100),B10
10,102 % of GpH7-B3/GpL16-k0 (=100),B11
11,99.2 % of GpH7-B3/GpL16-k0 (=100),B12
12,79.8 % of GpH7-B3/GpL16-k0 (=100),B13
13,82.9 % of GpH7-B3/GpL16-k0 (=100),B14
14,105 % of GpH7-B3/GpL16-k0 (=100),B15
15,102 % of GpH7-B3/GpL16-k0 (=100),B16
16,76.9 % of GpH7-B3/GpL16-k0 (=100),B17
17,87.8 % of GpH7-B3/GpL16-k0 (=100),B18
18,122 % of GpH7-B3/GpL16-k0 (=100),B19
19,103 % of GpH7-B3/GpL16-k0 (=100),B20
20,80.8 % of GpH7-B3/GpL16-k0 (=100),B21
21,94.6 % of GpH7-B3/GpL16-k0 (=100),B22
22,167 % of GpH7-B3/GpL16-k0 (=100),B23
23,74.4 % of GpH7-B3/GpL16-k0 (=100),B24
24,92.3 % of GpH7-B3/GpL16-k0 (=100),B25
25,85.3 % of GpH7-B3/GpL16-k0 (=100),B26
26,102 % of GpH7-B3/GpL16-k0 (=100),B27
